Reference: US20240109974A1 (SHANDONG SIMCERE BIOPHARMACEUTICAL, published 2024)
Positions count from the first letter of the chain named.

T1: Cynomolgus TNFR2-His (Sino 90102-C08H) (cynomolgus monkey, UniProt A0A2K5VET2 132-366)
T1 construct: Bought protein; also called cynomolgus monkey TNFR2; recombinant cynomolgus monkey TNFR2 protein; not shown: His tag
T1 sequence: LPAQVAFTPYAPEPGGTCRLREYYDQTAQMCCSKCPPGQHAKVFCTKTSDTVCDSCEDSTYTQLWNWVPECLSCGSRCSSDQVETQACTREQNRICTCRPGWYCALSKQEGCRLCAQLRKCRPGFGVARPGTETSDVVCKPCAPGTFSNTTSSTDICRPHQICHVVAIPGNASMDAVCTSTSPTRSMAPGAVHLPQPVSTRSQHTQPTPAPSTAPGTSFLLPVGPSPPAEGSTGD

T2: human TNFR2 on the surface of CHO-TNFR2 cells (human, UniProt P20333 23-461)
T2 construct: whole, on cells
T2 sequence (looked up): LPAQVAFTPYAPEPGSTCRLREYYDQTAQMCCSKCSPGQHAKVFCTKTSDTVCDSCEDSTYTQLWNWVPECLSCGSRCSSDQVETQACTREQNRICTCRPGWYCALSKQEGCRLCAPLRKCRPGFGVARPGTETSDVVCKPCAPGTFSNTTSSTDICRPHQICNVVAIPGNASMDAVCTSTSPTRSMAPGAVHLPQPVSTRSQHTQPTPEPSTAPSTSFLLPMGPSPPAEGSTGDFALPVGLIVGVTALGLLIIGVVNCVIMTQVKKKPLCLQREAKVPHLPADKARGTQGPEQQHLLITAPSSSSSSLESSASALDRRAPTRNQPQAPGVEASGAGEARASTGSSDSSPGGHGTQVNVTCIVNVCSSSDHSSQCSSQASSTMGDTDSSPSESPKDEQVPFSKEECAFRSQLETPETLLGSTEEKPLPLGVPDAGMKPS

B1: 001-Hu5 (antibody, V domains shown)
VH: EVQLVESGGGLVQPGGSLRLSCAASGFAFSTYDLSWVRQAPGKGLEWVAYINNGGISTYYSDTVKGRFTISRDNAKNTLYLQMNSLRAEDTAVYYCVRGPFYGSANYFDYWGQGTLVTVSS
VL: DIQMTQSPSSLSASVGDRVTITCRTSESIYSNLPWYQQKPGKSPKLLVYDATKLAEGVPSRFSGSGSGTDYTLTISSLQPEDFATYYCQHFWVTPWTFGQGTKVEIK
notes: Humanized form of #001; also called VH1 + VL4
B2: 001-Hu1 (antibody, V domains shown)
VH: B1 VH
VL: B1 VL with S43A, V48L
notes: Humanized form of #001; also called VH1 + VL1
B3: 001-Hu2 (antibody, V domains shown)
VH: B1 VH with T78S
VL: B1 VL with V48I, Y71F
notes: Humanized form of #001; also called VH2 + VL2
B4: 001-Hu3 (antibody, V domains shown)
VH: B1 VH
VL: B1 VL with S43A, V48I
notes: Humanized form of #001; also called VH1 + VL3
B5: 001-Hu4 (antibody, V domains shown)
VH: B1 VH with T78S
VL: B1 VL
notes: Humanized form of #001; also called VH2 + VL4
B6: 219-Hu3 (antibody, V domains shown)
VH: QVQLVQSGAEVKKPGSSVKVSCKASGYSFTNYWMNWVRQAPGQGLEWMGMIHPSDTETRLNQNFKDRVTITADKSTSTAYMELSSLRSEDTAVYYCARGEGLGAARSVSMDYWGQGTLVTVSS
VL: DIQMTQSPSSLSASVGDRVTITCRASQDISNYLNWYQQKPDGTVKLLIYYTAILHSGVPSRFSGSGSGTDYSLTISSLQPEDFATYFCQQGNTLPWTFGQGTKVEIK
notes: also called VH5 + VL5
B7: 219-Hu1 (antibody, V domains shown)
VH: B6 VH with S16A, G44R, A72R, K74T, T76A
VL: B6 VL
notes: also called VH3 + VL5
B8: 219-Hu2 (antibody, V domains shown)
VH: B6 VH with R67K, V68A
VL: B6 VL
notes: also called VH4 + VL5
B9: 219-Hu4 (antibody, V domains shown)
VH: B6 VH with R38K, M48I, R67K, V68A, I70L, A72V
VL: B6 VL
notes: also called VH6 + VL5
B10: 219-Hu5 (antibody, V domains shown)
VH: B6 VH with A72V
VL: B6 VL
notes: also called VH7 + VL5
B11: 224-Hu1 (antibody, V domains shown)
VH: QVQLVQSGAEVKKPGASVKVSCKASGFNNKDIYMHWVRQAPGQGLEWIGRIDPATGNTKHDPKFQDRVTMTSDTSTNTVYMELSSLRSEDTAVYYCARSPYGDFGAMDYWGQGTLVTVSS
VL: DIQMTQSPSSLSASVGDRVTITCTASSSVSSNYLHWYQQKPGKAPKLWIYSTSNLPSGVPSRFSGSGSGTDFTLTISSLQPEDFATYYCHQYHRSPWTFGQGTKVEIK
notes: Humanized form of #224; also called VH8 + VL6
B12: 224-Hu6 (antibody, V domains shown)
VH: B11 VH
VL: B11 VL with K43S, A44S
notes: Humanized form of #224; also called VH8 + VL7
B13: 224-Hu7 (antibody, V domains shown)
VH: QVQLVQSGSELKKPGASVKVSCKASGFNNKDIYMHWVRQAPGQGLEWMGRIDPATGNTKHDPKFQDKAVLSSDTSVSTAYLQISSLKAEDTAVYYCARSPYGDFGAMDYWGQGTLVTVSS
VL: B11 VL with W48L
notes: Humanized form of #224; also called VH9 + VL10
B14: 224-Hu2 (antibody, V domains shown)
VH: B13 VH
VL: B11 VL with K43S, A44S
notes: Humanized form of #224; also called VH9 + VL7
B15: 224-Hu3 (antibody, V domains shown)
VH: B13 VH
VL: B11 VL with W48L, P81A, F84A
notes: Humanized form of #224; also called VH9 + VL8
B16: 224-Hu4 (antibody, V domains shown)
VH: B13 VH
VL: B11 VL
notes: Humanized form of #224; also called VH9 + VL6
B17: 224-Hu5 (antibody, V domains shown)
VH: B13 VH
VL: B11 VL with W48L, F72Y, T73S
notes: Humanized form of #224; also called VH9 + VL9

Target: T1, Cynomolgus TNFR2-His (Sino 90102-C08H)
Assay: ELISA, cynomolgus TNFR2-His coated
Procedure: The test humanized antibody against TNFR2 (as described in Example 1, the antibody was comprised of variable regions linked to IgG-Fc; the WT chimeric antibody also adopted the IgG-Fc structure) was subjected to 3.33-fold gradient dilution, loaded with 100 μl/well, and incubated with shaking at room temperature for 1.5 hours. The plate was washed, and then a working solution of murine anti-human IgG Fc-HRP (diluted at 1:10000) was added, loaded with 100 μl/well, and incubated with shaking at room temperature for 1.0 hour. The plate was washed again, and then the substrate TMB of HRP was added to develop colour. A stop solution was added to stop the reaction, and then a microplate reader (MD 13) was used to read the absorbance value. The binding curve of an antibody was drawn with antibody concentration as the abscissa and corresponding OD value as the ordinate, and fitted with four parameters (GraphPad Prism9) to calculate the EC50 value. The smaller the EC50 value, the stronger the binding ability of an antibody to human/cynomolgus monkey TNFR2. The binding effect of a humanized antibody was normalized to its corresponding human-murine chimeric antibody WT (see SEQ ID NOs: 38-43 for the sequence). The higher the percentage value, the better the binding effect of the humanized antibody. The results of binding of an anti-TNFR2 antibody to a human TNFR2 protein are shown in FIG. 1 and Table 4, and the results of binding of an anti-TNFR2 antibody to cynomolgus monkey TNFR2 are shown in FIG. 2 and Table 4.

In order of rising EC50:
1. B13  8.39 ng/mL
2. B3  9.14 ng/mL
3. B5  9.27 ng/mL
4. B16  9.56 ng/mL
5. B2  9.62 ng/mL
6. B14  9.62 ng/mL
7. B15  9.69 ng/mL
8. B17  9.69 ng/mL
9. B1  9.88 ng/mL
10. B4  9.9 ng/mL
11. B12  9.97 ng/mL
12. B11  9.98 ng/mL
13. B8  11.3 ng/mL
14. B9  12.2 ng/mL
15. B10  12.2 ng/mL
16. B6  12.7 ng/mL
17. B7  14.8 ng/mL

Target: T2, human TNFR2 on the surface of CHO-TNFR2 …
Assay: competition flow cytometry on CHO-TNFR2 cells, competitor human TNFα-biotin
Procedure: (§1) CHO stable cells highly expressing human TNFR2 were used for the experiment (the same as CHO-TNFR2 in Example 4). The CHO-TNFR2 cells were digested, washed twice with DPBS, then stained with Live/Dead (L/D) (20 minutes at room temperature), and plated at a density of 1×10⁵ cells/50 μl/well. A test anti-TNFR2 antibody was diluted to 6 μg/ml with a staining buffer as the starting concentration: the antibody was subjected to 3.33-fold gradient dilution, with a total of 7 concentration points. The diluted antibody was added to the plated cells at 50 μl/well, and the mixture was mixed well by gentle pipetting, and incubated at 4° C. for 30 minutes. Then the diluted 100 ng/ml of human TNFα-biotin was added at 100 μl/well, and the mixture was mixed well by gentle pipetting, and then incubated at 4° C. for 30 minutes. The mixture was washed twice with a staining buffer, and then 0.12 μg/ml PE-streptavidin (BioLegend, Cat #405204) was added at 100 μl/well; the resulting mixture was incubated at 4° C. for 30 minutes. The mixture was washed twice with a staining buffer, and then 150 μl of staining buffer was added to resuspend the cells; signals were detected by a flow cytometer (Thermo Attune NxT). The inhibitory curve of an antibody was drawn with antibody concentration as the abscissa and corresponding MFI value as the ordinate, and fitted with four parameters (GraphPad Prism9) to calculate the IC50 value. The smaller the IC50 value, the stronger the ability of an antibody to inhibit the binding of human TNFα to human TNFR2. The blocking effect of a humanized antibody was normalized to its corresponding human-murine chimeric WT antibody. The higher the percentage value, the better the inhibitory effect of the humanized antibody.

In order of rising IC50:
1. B14  0.036 µg/mL
2. B8  0.039 µg/mL
3. B10  0.039 µg/mL
4. B6  0.042 µg/mL
5. B11  0.042 µg/mL
6. B9  0.043 µg/mL
7. B15  0.044 µg/mL
8. B7  0.047 µg/mL
9. B16  0.058 µg/mL
10. B12  0.061 µg/mL
11. B17  0.062 µg/mL
12. B13  0.065 µg/mL
13. B4  0.085 µg/mL
14. B2  0.087 µg/mL
15. B5  0.087 µg/mL
16. B1  0.093 µg/mL
17. B3  0.101 µg/mL

Target: T2, human TNFR2 on the surface of CHO-TNFR2 …
Assay: competition flow cytometry on CHO-TNFR2 cells, competitor TNFα-biotin; area under the MFI curve
Design: unit not given beside the values
Procedure: as §1

In order of falling AUC:
1. B11  20300
2. B13  19600
3. B14  19200
4. B15  18700
5. B17  14600
6. B16  14200
7. B12  13900
8. B1  10200
9. B5  10200
10. B3  9000
11. B2  8840
12. B4  8810
13. B6  7590
14. B8  7340
15. B7  7320
16. B9  7320
17. B10  7260
